# Measured values taken from the supplement of paper PMC10567573.
# B1: CSNK1G1 (parent)
# chain: GSLPWQGLKADTLKERYQKIGDTK
# Variants of: B1
# Test: protein stability index of a GFP-peptide fusion (GPS, HEK-293T) (PSI 1-6); higher = more stable
# Conditions: c terminus: a fixed tail appended
# 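Note: lentivirally expressed fusions sorted by FACS into six bins by GFP to DsRed ratio, PSI derived from sequencing read proportions per bin multiplied by bin number.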
row,Variant,protein stability index
1,GSLPGQGLKADTLKERYQKIGDTK [W5G],4.53
2,GSLPLQGLKADTLKERYQKIGDTK [W5L],4.62
3,GSLPWQPLKADTLKERYQKIGDTK [G7P],4.38
4,GSLPWQALKADTLKERYQKIGDTK [G7A],4.39
5,GSLPWQLLKADTLKERYQKIGDTK [G7L],3.44
6,GSLPWQMLKADTLKERYQKIGDTK [G7M],3.85
7,GSLPWQCLKADTLKERYQKIGDTK [G7C],3.4
8,GSLPWQRLKADTLKERYQKIGDTK [G7R],3.56
9,GSLPWQILKADTLKERYQKIGDTK [G7I],3.52
10,GSLPWQQLKADTLKERYQKIGDTK [G7Q],3.9
11,GSLPWQYLKADTLKERYQKIGDTK [G7Y],3.49
12,GSLPWQTLKADTLKERYQKIGDTK [G7T],3.89
13,GSLPWQELKADTLKERYQKIGDTK [G7E],4.31
14,GSLPWQHLKADTLKERYQKIGDTK [G7H],3.72
15,GSLPWQFLKADTLKERYQKIGDTK [G7F],2.42
16,GSLPWQKLKADTLKERYQKIGDTK [G7K],3.75
17,GSLPWQDLKADTLKERYQKIGDTK [G7D],4.33
18,GSLPWQSLKADTLKERYQKIGDTK [G7S],4.01
19,GSLPWQVLKADTLKERYQKIGDTK [G7V],3.65
20,GSLPWQNLKADTLKERYQKIGDTK [G7N],4.64
21,GSLPWQWLKADTLKERYQKIGDTK [G7W],3.52
22,GSLPWQGLAADTLKERYQKIGDTK [K9A],3.71
23,GSLPWQGLFADTLKERYQKIGDTK [K9F],3.66
24,GSLPWQGLEADTLKERYQKIGDTK [K9E],4.69

row,Variant,protein stability index
1,GSLPWQGLDADTLKERYQKIGDTK [K9D],4.25
2,GSLPWQGLIADTLKERYQKIGDTK [K9I],3.79
3,GSLPWQGLCADTLKERYQKIGDTK [K9C],3.93
4,GSLPWQGLQADTLKERYQKIGDTK [K9Q],3.89
5,GSLPWQGLMADTLKERYQKIGDTK [K9M],3.87
6,GSLPWQGLLADTLKERYQKIGDTK [K9L],3.18
7,GSLPWQGLTADTLKERYQKIGDTK [K9T],4.35
8,GSLPWQGLSADTLKERYQKIGDTK [K9S],4.2
9,GSLPWQGLHADTLKERYQKIGDTK [K9H],4.24
10,GSLPWQGLGADTLKERYQKIGDTK [K9G],3.9
11,GSLPWQGLNADTLKERYQKIGDTK [K9N],4.46
12,GSLPWQGLRADTLKERYQKIGDTK [K9R],4.09
13,GSLPWQGLPADTLKERYQKIGDTK [K9P],5.08
14,GSLPWGGLKADTLKERYQKIGDTK [Q6G],4.13
15,GSLPWAGLKADTLKERYQKIGDTK [Q6A],3.7
16,GSLPWLGLKADTLKERYQKIGDTK [Q6L],3.77
17,GSLPWMGLKADTLKERYQKIGDTK [Q6M],4.07
18,GSLPWWGLKADTLKERYQKIGDTK [Q6W],2.74
19,GSLPWCGLKADTLKERYQKIGDTK [Q6C],3.4
20,GSLPWIGLKADTLKERYQKIGDTK [Q6I],3.94
21,GSLPWYGLKADTLKERYQKIGDTK [Q6Y],2.89
22,GSLPWPGLKADTLKERYQKIGDTK [Q6P],4.57
23,GSLPWNGLKADTLKERYQKIGDTK [Q6N],3.92
24,GSLPWVGLKADTLKERYQKIGDTK [Q6V],4.33

row,Variant,protein stability index
1,GSLPWSGLKADTLKERYQKIGDTK [Q6S],3.98
2,GSLPWTGLKADTLKERYQKIGDTK [Q6T],4.24
3,GSLPWRGLKADTLKERYQKIGDTK [Q6R],3.96
4,GSLPWHGLKADTLKERYQKIGDTK [Q6H],4.62
5,GSLPWDGLKADTLKERYQKIGDTK [Q6D],4.48
6,GSLPWEGLKADTLKERYQKIGDTK [Q6E],4.32
7,GSLPWFGLKADTLKERYQKIGDTK [Q6F],3.25
8,GSLPWKGLKADTLKERYQKIGDTK [Q6K],4.13
9,QSLPWQGLKADTLKERYQKIGDTK [G1Q],4.03
10,VSLPWQGLKADTLKERYQKIGDTK [G1V],3.79
11,ESLPWQGLKADTLKERYQKIGDTK [G1E],4.44
12,ASLPWQGLKADTLKERYQKIGDTK [G1A],4.05
13,HSLPWQGLKADTLKERYQKIGDTK [G1H],4
14,FSLPWQGLKADTLKERYQKIGDTK [G1F],2.73
15,WSLPWQGLKADTLKERYQKIGDTK [G1W],3.6
16,YSLPWQGLKADTLKERYQKIGDTK [G1Y],2.08
17,KSLPWQGLKADTLKERYQKIGDTK [G1K],4.17
18,MSLPWQGLKADTLKERYQKIGDTK [G1M],4.35
19,PSLPWQGLKADTLKERYQKIGDTK [G1P],4.15
20,SSLPWQGLKADTLKERYQKIGDTK [G1S],3.97
21,DSLPWQGLKADTLKERYQKIGDTK [G1D],4.35
22,CSLPWQGLKADTLKERYQKIGDTK [G1C],3.34
23,NSLPWQGLKADTLKERYQKIGDTK [G1N],4.13
24,TSLPWQGLKADTLKERYQKIGDTK [G1T],4.04

row,Variant,protein stability index
1,ISLPWQGLKADTLKERYQKIGDTK [G1I],3.52
2,LSLPWQGLKADTLKERYQKIGDTK [G1L],3.89
3,RSLPWQGLKADTLKERYQKIGDTK [G1R],4.16
4,GSLFWQGLKADTLKERYQKIGDTK [P4F],2.84
5,GSLCWQGLKADTLKERYQKIGDTK [P4C],3.42
6,GSLWWQGLKADTLKERYQKIGDTK [P4W],3.09
7,GSLEWQGLKADTLKERYQKIGDTK [P4E],4.46
8,GSLAWQGLKADTLKERYQKIGDTK [P4A],4.02
9,GSLQWQGLKADTLKERYQKIGDTK [P4Q],4.3
10,GSLHWQGLKADTLKERYQKIGDTK [P4H],4.17
11,GSLGWQGLKADTLKERYQKIGDTK [P4G],4.02
12,GSLLWQGLKADTLKERYQKIGDTK [P4L],3.78
13,GSLKWQGLKADTLKERYQKIGDTK [P4K],4.28
14,GSLYWQGLKADTLKERYQKIGDTK [P4Y],3.73
15,GSLRWQGLKADTLKERYQKIGDTK [P4R],4.37
16,GSLIWQGLKADTLKERYQKIGDTK [P4I],3.67
17,GSLMWQGLKADTLKERYQKIGDTK [P4M],4.55
18,GSLSWQGLKADTLKERYQKIGDTK [P4S],4.49
19,GSLNWQGLKADTLKERYQKIGDTK [P4N],3.95
20,GSLTWQGLKADTLKERYQKIGDTK [P4T],4.08
21,GSLVWQGLKADTLKERYQKIGDTK [P4V],4.09
22,GSLDWQGLKADTLKERYQKIGDTK [P4D],4.37
